From US20250327097A1, “ORGANISMS PRODUCING LESS CROTONIC ACID” (Global Bioenergies, priority 2021, published 2025)
Substitutions are numbered along the chain they refer to. In names and notes the source's numbering stands.

B1: N285M-N287T-S322T-N388M-K394R-C430N-L432F-L434W-S436N-dA463-S465V (protein)
chain: MFLKSLREQINLLKRQGDLRIINRPVDSYLEAAAIIRRSTETKAPVPLMTNIKGYPGCSIVGGLAALSSNPEYPLSRVAMSLGLSTTASAQSIVQYLIDGLKKTPYLPVEIDSNSAPCKQNILRGEDASLAHFPIPQVHQHDGNRYVNTWGVFIVESPDGQWCNWSIQRVQYLNDRQMIALVFPSQHISDIWEEWVKIGKPMPYALVQGCEPIVPYIAGLPLLERNVNEAEYIGALYGKGIEVVKCETHDLRVPASSEVVIEGYFAITREGVEGPFGEFAGYIPMETSLQPILSITAISWQDDPIWPVVAEGKPVDEYHTCTGIGDAAAIQNVLLTANLPVSFVWVPLYSACHLMIVSINRHWRQTHPDLTSEQLTKKVGDVIHQTRMSIKLPRIVVLDDDVDPADTESLLWALATRIHPERKRYFYESNIFPWLNCYSEEERHNRKGKRVIIDALLPENHGAIVSFDYAYPDDIKQRVLMHWETDFSHD
B2: I283T-N285P-N287T-L289Y-Q290E-S322T-N388M-K394R-C430A-L432F-L434W-S436N-G462P-A463P (protein)
chain: B1 chain with I283T, M285P, L289Y, Q290E, N430A, G462P, A463P, V465S
B3: I283Q-P284D-N285M-N287T-S322T-N388M-K394R-C430A-L432F-L434W-S436N-G462P-A463P (protein)
chain: B1 chain with I283Q, P284D, N430A, G462P, A463P, V465S
B4: P284E-N287Q-S322T-N388M-K394R-C430N-L432F-L434W-S436N-dA463-A470S (protein)
chain: B1 chain with P284E, M285N, T287Q, V465S, A470S
B5: I283T-P284D-N285M-E286A-N287T-S322T-N388M-K394R-C430A-L432F-L434W-S436N-G462P-A463P (protein)
chain: B1 chain with I283T, P284D, E286A, N430A, G462P, A463P, V465S
B6: I283T-N285P-N287T-L289A-Q290E-S322T-N388M-K394R-C430A-L432F-L434W-S436N-G462P-A463P (protein)
chain: B1 chain with I283T, M285P, L289A, Q290E, N430A, G462P, A463P, V465S
B7: I283T-P284D-N285M-E286G-N287T-S322T-N388M-K394R-C430A-L432F-L434W-S436N-G462P-A463P (protein)
chain: B1 chain with I283T, P284D, E286G, N430A, G462P, A463P, V465S
B8: P284E-N287Q-S322T-N388M-K394R-C430N-L432F-L434W-S436N-dA463-Y469T (protein)
chain: B1 chain with P284E, M285N, T287Q, V465S, Y469T
B9: I283T-P284D-N285T-N287T-S322T-N388M-K394R-C430A-L432F-L434W-S436N-G462P-A463P (protein)
chain: B1 chain with I283T, P284D, M285T, N430A, G462P, A463P, V465S
B10: P284E-N287Q-S322T-N388M-K394R-C430N-L432F-L434W-S436N-dA463-S465A (protein)
chain: B1 chain with P284E, M285N, T287Q, V465A
B11: I283T-P284D-N285H-N287T-S322T-N388M-K394R-C430A-L432F-L434W-S436N-G462P-A463P (protein)
chain: B1 chain with I283T, P284D, M285H, N430A, G462P, A463P, V465S
B12: I283L-P284E-N287Q-S322T-N388M-K394R-C430N-L432F-L434W-S436N-dA463 (protein)
chain: B1 chain with I283L, P284E, M285N, T287Q, V465S
B13: I283L-N285P-N287T-Q290E-S322T-N388M-K394R-C430A-L432F-L434W-S436N (protein)
chain: B1 chain with I283L, M285P, Q290E, N430A, V465S
B14: P284E-N287Q-S322T-N388M-K394R-R422H-C430N-L432F-L434W-S436N-dA463 (protein)
chain: B1 chain with P284E, M285N, T287Q, R422H, V465S
B15: P284E-N287Q-L289H-S322T-N388M-K394R-C430N-L432F-L434W-S436N-dA463 (protein)
chain: B1 chain with P284E, M285N, T287Q, L289H, V465S
B16: S185T-N388M-C430S-L432F-L434W-S436N (protein)
chain: B1 chain with S185T, M285N, T287N, T322S, R394K, N430S, V465S
B17: I283Q-P284E-N287Q-S322T-N388M-K394R-C430N-L432F-L434W-S436N-dA463 (protein)
chain: B1 chain with I283Q, P284E, M285N, T287Q, V465S
B18: P284E-N287Q-S322T-N388M-K394R-C430N-L432F-L434W-S436N-dA463-A470T (protein)
chain: B1 chain with P284E, M285N, T287Q, V465S, A470T
B19: P284E-N287Q-L289R-S322T-N388M-K394R-C430N-L432F-L434W-S436N-dA463 (protein)
chain: B1 chain with P284E, M285N, T287Q, L289R, V465S
B20: N388M-K394R-C430N-L432F-L434W-S436N-H444L (protein)
chain: B1 chain with M285N, T287N, T322S, H444L, V465S
B21: P284D-N287Q-S322T-N388M-K394R-C430N-L432F-L434W-S436N-dA463 (protein)
chain: B1 chain with P284D, M285N, T287Q, V465S
B22: I283T-N285P-E286D-N287T-Q290E-S322T-N388M-K394R-C430A-L432F-L434W-S436N-G462P-A463P (protein)
chain: B1 chain with I283T, M285P, E286D, Q290E, N430A, G462P, A463P, V465S
B23: I283T-P284D-N285M-E286H-N287T-S322T-N388M-K394R-C430A-L432F-L434W-S436N-G462P-A463P (protein)
chain: B1 chain with I283T, P284D, E286H, N430A, G462P, A463P, V465S
B24: I283H-P284D-N285M-N287T-S322T-N388M-K394R-C430A-L432F-L434W-S436N-G462P-A463P (protein)
chain: B1 chain with I283H, P284D, N430A, G462P, A463P, V465S
B25: I283T-N285P-N287T-Q290E-S322T-Q365S-N388M-K394R-C430A-L432F-L434W-S436N-G462P-A463P (protein)
chain: B1 chain with I283T, M285P, Q290E, Q365S, N430A, G462P, A463P, V465S
B26: I283T-P284D-N285V-N287T-S322T-N388M-K394R-C430A-L432F-L434W-S436N-G462P-A463P (protein)
chain: B1 chain with I283T, P284D, M285V, N430A, G462P, A463P, V465S
B27: I283C-P284E-N287Q-S322T-N388M-K394R-C430N-L432F-L434W-S436N-dA463 (protein)
chain: B1 chain with I283C, P284E, M285N, T287Q, V465S
B28: I283T-P284D-N285L-N287T-S322T-N388M-K394R-C430A-L432F-L434W-S436N-G462P-A463P (protein)
chain: B1 chain with I283T, P284D, M285L, N430A, G462P, A463P, V465S
B29: I283T-N285P-N287T-Q290E-S322T-Q365M-N388M-K394R-C430A-L432F-L434W-S436N-G462P-A463P (protein)
chain: B1 chain with I283T, M285P, Q290E, Q365M, N430A, G462P, A463P, V465S
B30: I283T-P284D-N285S-N287T-S322T-N388M-K394R-C430A-L432F-L434W-S436N-G462P-A463P (protein)
chain: B1 chain with I283T, P284D, M285S, N430A, G462P, A463P, V465S
B31: I283T-P284D-N285M-E286N-N287T-S322T-N388M-K394R-C430A-L432F-L434W-S436N-G462P-A463P (protein)
chain: B1 chain with I283T, P284D, E286N, N430A, G462P, A463P, V465S
B32: P284E-N287Q-S322T-N388M-K394R-C430N-L432F-L434W-S436N-G462R-dA463 (protein)
chain: B1 chain with P284E, M285N, T287Q, G462R, V465S
B33: N388M-K394R-C430A-L432F-L434W-S436N (protein)
chain: B1 chain with M285N, T287N, T322S, N430A, V465S
B34: P284E-N287Q-S322T-N388M-K394R-C430N-L432F-L434W-S436N-dA463-Y469E (protein)
chain: B1 chain with P284E, M285N, T287Q, V465S, Y469E

Each molecule was assayed on 3-methylcrotonic acid.
Format: biochemical, Yersinia frederiksenii
Design: key: “+” representing a low increase in activity; “++++” representing a high increase in activity

Molecule | Activity relative to WT
B1 | ++++
B2 | ++++
B3 | ++++
B4 | ++++
B5 | ++++
B6 | ++++
B7 | ++++
B8 | ++++
B9 | ++++
B10 | ++++
B11 | ++++
B12 | ++++
B13 | ++++
B14 | ++++
B15 | ++++
B16 | +
B17 | ++++

Molecule | Activity relative to WT
B18 | ++++
B19 | ++++
B20 | +
B21 | ++++
B22 | ++++
B23 | ++++
B24 | ++++
B25 | ++++
B26 | ++++
B27 | ++++
B28 | ++++
B29 | ++++
B30 | ++++
B31 | ++++
B32 | ++++
B33 | +
B34 | ++++
